Assay [1] concerns the target T1, erythrocytes (red blood cells) carrying the EBA-175 receptor glycophorin A (human, UniProt P02724 20-150, sialic acid residues (removed by neuraminidase treatment in FIG. 12)).
T1 construct: whole, on cells; The assays used whole erythrocytes; also called RBC; human RBCs
T1 sequence: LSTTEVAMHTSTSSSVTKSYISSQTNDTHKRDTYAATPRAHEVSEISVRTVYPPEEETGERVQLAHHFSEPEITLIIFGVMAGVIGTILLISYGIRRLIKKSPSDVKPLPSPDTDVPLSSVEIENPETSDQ
The assay is described as follows: erythrocyte binding assay.

The target of assay [2] is T1, erythrocytes (red blood cells) carrying …. The assay is described as follows: erythrocyte binding assay with human RBCs with or without neuraminidase treatment, immunoblot read-out. A general note: In western blotting, separated proteins are transferred to a membrane and probed.

B1: Pichia pastoris-expressed recombinant EBA-175 region II (RII) protein, N-glycosylated (ligand)
chain: GRNTSSNNEVLSNCREKRKGMKWDCKKKNDRSNYVCIPDRRIQLCIVNLSIIKTYTKETMKDHFIEASKKESQLLLKKNDNKYNSKFCNDLKNSFLDYGHLAMGNDMDFGGYSTKAENKIQEVFKGAHGEISEHKIKNFRKKWWNEFREKLWEAMLSEHKNNINNCKNIPQEELQITQWIKEWHGEFLLERDNRSKLPKSKCKNNTLYEACEKECIDPCMKYRDWIIRSKFEWHTLSKEYETQKVPKENAENYLIKISENKNDAKVSLLLNNCDAEYSKYCDCKHTTTLVKSVLNGNDNTIKEKREHIDLDDFSKFGCDKNSVDTNTKVWECKKPYKLSTKDVCVPPRRQELCLGNIDRIYDKNLLMIKEHILAIAIYESRILKRKYKNKDDKEVCKIINKTFADIRDIIGGTDYWNDLSNRKLVGKINTNSNYVHRNKQNDKLFRDEWWKVIKKDVWNVISWVFKDKTVCKEDDIENIPQFFRWFSEWGDDYCQDKTKMIETLKVECKEKPCEDDNCKRKCNSYKEWISKKKEEYNKQAKQYQEYQKGNNYKMYSEFKSIKPEVYLKKYSEKCSNLNFEDEFKEELHSDYKNKCTMCPEVKDVPISIIRNNEQTS
modifications: about 1 of 5 putative N-glycosylation sites occupied (Man14-16GlcNAc2) when expressed in P. pastoris
notes: also called EBA-175 RII; P. pastoris derived EBA-175 RII protein
With B1, the binding result in assay [1] was “binds”.

B2: Non-N-glycosylated EBA-175 RII protein (RII-N-Gly-) expressed in Pichia pastoris (ligand)
chain: GRQTSSNNEVLSNCREKRKGMKWDCKKKNDRSNYVCIPDRRIQLCIVNLAIIKTYTKETMKDHFIEASKKESQLLLKKNDNKYNSKFCNDLKNSFLDYGHLAMGNDMDFGGYSTKAENKIQEVFKGAHGEISEHKIKNFRKKWWNEFREKLWEAMLSEHKNNINNCKNIPQEELQITQWIKEWHGEFLLERDNRAKLPKSKCKNNALYEACEKECIDPCMKYRDWIIRSKFEWHTLSKEYETQKVPKENAENYLIKISENKNDAKVSLLLNNCDAEYSKYCDCKHTTTLVKSVLNGNDNTIKEKREHIDLDDFSKFGCDKNSVDTNTKVWECKKPYKLSTKDVCVPPRRQELCLGNIDRIYDKNLLMIKEHILAIAIYESRILKRKYKNKDDKEVCKIIQKTFADIRDIIGGTDYWNDLSNRKLVGKINTNSNYVHRNKQNDKLFRDEWWKVIKKDVWNVISWVFKDKTVCKEDDIENIPQFFRWFSEWGDDYCQDKTKMIETLKVECKEKPCEDDNCKRKCNSYKEWISKKKEEYNKQAKQYQEYQKGNNYKMYSEFKSIKPEVYLKKYSEKCSNLNFEDEFKEELHSDYKNKCTMCPEVKDVPISIIRNNEQTS
notes: also called mutated RII protein; non-N-glycosylated RII
Consider B2, for which, in assay [2], the binding result is given as “binds”.

Source of the values: patent US7078507 (US Dept. of Health and Human Services, dated 2006).
